The record followed here is patent US20230235080A1, “TROPHOBLAST CELL-SURFACE ANTIGEN-2 (TROP-2) ANTIBODIES” (Bionecure Therapeutics, Inc., priority 2020, published 2023).

T1: human Trop-2 on Trop-2 positive cancer cells (human, UniProt P09758 27-323)
T1 sequence (looked up): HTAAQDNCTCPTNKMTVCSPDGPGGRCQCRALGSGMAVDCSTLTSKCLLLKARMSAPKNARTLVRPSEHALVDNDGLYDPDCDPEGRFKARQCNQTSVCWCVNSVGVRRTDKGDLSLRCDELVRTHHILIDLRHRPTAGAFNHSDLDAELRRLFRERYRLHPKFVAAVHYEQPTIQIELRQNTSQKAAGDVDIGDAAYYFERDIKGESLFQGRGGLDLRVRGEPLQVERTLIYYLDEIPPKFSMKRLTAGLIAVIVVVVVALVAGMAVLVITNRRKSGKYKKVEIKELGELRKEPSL

T2: human Trop-2-ECD-6His fusion protein (human, UniProt P09758 27-274)
T2 construct: Expressed in a human 293 cell line; also called huTrop-2; human Trop-2 antigen
T2 sequence: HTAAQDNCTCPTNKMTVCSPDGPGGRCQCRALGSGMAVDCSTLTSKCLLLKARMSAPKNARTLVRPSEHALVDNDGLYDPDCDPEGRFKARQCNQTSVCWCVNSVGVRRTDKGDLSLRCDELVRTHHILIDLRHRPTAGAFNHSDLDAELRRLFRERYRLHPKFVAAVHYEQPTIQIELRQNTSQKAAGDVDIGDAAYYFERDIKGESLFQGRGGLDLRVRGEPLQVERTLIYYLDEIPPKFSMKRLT

T3: mouse Trop-2-His (mouse, UniProt Q8BGV3 25-270)
T3 sequence (looked up): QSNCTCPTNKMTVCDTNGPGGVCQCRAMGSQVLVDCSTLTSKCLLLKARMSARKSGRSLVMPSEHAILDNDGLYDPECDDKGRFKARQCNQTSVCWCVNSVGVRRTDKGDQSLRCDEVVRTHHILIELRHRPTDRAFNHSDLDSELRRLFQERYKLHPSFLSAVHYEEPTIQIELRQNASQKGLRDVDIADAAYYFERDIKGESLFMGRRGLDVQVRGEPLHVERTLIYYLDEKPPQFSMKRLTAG

T4: human EPCAM-His (human, UniProt P16422 24-265)
T4 construct: also called hEPCAM
T4 sequence (looked up): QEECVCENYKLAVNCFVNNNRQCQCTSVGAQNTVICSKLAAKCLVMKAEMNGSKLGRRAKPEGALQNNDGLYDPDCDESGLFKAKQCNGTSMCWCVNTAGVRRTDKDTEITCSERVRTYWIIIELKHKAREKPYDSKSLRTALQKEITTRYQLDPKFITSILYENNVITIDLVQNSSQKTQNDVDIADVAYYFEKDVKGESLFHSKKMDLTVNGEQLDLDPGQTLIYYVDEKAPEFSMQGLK

B1: humanized IgG #118-2-5 HuA/LuX (antibody, V domains shown)
VH: QVQLQESGPGLVKPSETLSLTCTVSGFSLTSYGVNWIRQPPGKGLEWIGVMWAGGSTNYNSALMSRVTISVDTSKNQFSLKLSSVTAADTAVYYCARDENWDGAWFAYWGQGTLVTVSS
VL: DIVMTQSPDSLAVSLGERATINCKSSQSLLNSGTRKNYLAWYQQKPGQPPKLLIYWASSRESGVPDRFSGSGSGTDFTLTISSLQAEDVAVYYCKQSYNLFTFGGGTKVEIK
notes: Full-length IgG expressed in HEK293-6E cells; also called 1 (HuA/LuX); IgG HuA/LuX
B2: humanized IgG #118-2-5 HuD/LuY (antibody, V domains shown)
VH: B1 VH with Q5K, K13A, L20I, I48L, V67L, V71K, F78V, T86Q, V92M
VL: B1 VL with D9S, I21M, N22S, Y55S, L84V, V89L
notes: Full-length IgG expressed in HEK293-6E cells; also called 8 (HuD/LuY)
B3: humanized IgG #118-2-5 HuC/LuX (antibody, V domains shown)
VH: QVQLQESGPGLVKPSETLSLTCTVSGFSLTSYGVNWIRQPPGKGLEWIGVMWAGGSTNYNSALMSRLSISKDNSKSQVFLKMNSLQTDDTGMYYCARDENWDGAWFAYWGQGTLVTVSS
VL: B1 VL
notes: Full-length IgG expressed in HEK293-6E cells; also called 3 (HuC/LuX)
B4: humanized IgG #118-2-5 HuA/LuY (antibody, V domains shown)
VH: B1 VH
VL: B1 VL with D9S, I21M, N22S, Y55S, L84V, V89L
notes: Full-length IgG expressed in HEK293-6E cells
B5: humanized IgG #118-2-5 HuB/LuX (antibody, V domains shown)
VH: B1 VH with Q5K, E6Q, K13A, E16Q, T17S, L20I
VL: B1 VL
notes: Full-length IgG expressed in HEK293-6E cells; also called 2 (HuB/LuX)
B6: humanized IgG #118-2-5 HuD/LuX (antibody, V domains shown)
VH: B1 VH with Q5K, K13A, L20I, I48L, V67L, V71K, F78V, T86Q, V92M
VL: B1 VL
notes: Full-length IgG expressed in HEK293-6E cells; also called 4 (HuD/LuX)
B7: humanized IgG #118-2-5 HuB/LuY (antibody, V domains shown)
VH: B1 VH with Q5K, E6Q, K13A, E16Q, T17S, L20I
VL: B1 VL with D9S, I21M, N22S, Y55S, L84V, V89L
notes: Full-length IgG expressed in HEK293-6E cells; also called 6 (HuB/LuY)
B8: humanized IgG #118-2-5 HuC/LuY (antibody, V domains shown)
VH: B3 VH
VL: B1 VL with D9S, I21M, N22S, Y55S, L84V, V89L
notes: Full-length IgG expressed in HEK293-6E cells; also called 7 (HuC/LuY)
B9: #118-2-5 mouse H4-2/L3-3 (antibody, V domains shown)
VH: QVQLKQSGPGLVAPSQSLSITCTVSGFSLTSYGVNWIRQPPGKGLEWLGVMWAGGSTNYNSALMSRLSISKDNSKSQVFLKMNSLQTDDTGMYYCARDENWDGAWFAYWGQGTLVTVS
VL: DIQMTQSPSSLAVSAGEKVTMSCKSSQSLLNSGTRKNYLAWYQQKPGQSPKLLISWASSRESGVPDRFTGSGSGTDFTLTISSVQAEDLAVYYCKQSYNLFTFGGGTKLELK
notes: The label H4-2/L3-3 is not explained
B10: humanized IgG #118-2-5 Hu(A5)/LuX (antibody, V domains shown)
VH: B1 VH with V92M
VL: B1 VL
notes: Second round of humanization
B11: humanized IgG #118-2-5 HuA/Lu(X5) (antibody, V domains shown)
VH: B1 VH
VL: B1 VL with L84V
notes: Second round of humanization
B12: humanized IgG #118-2-5 HuA/Lu(X6) (antibody, V domains shown)
VH: B1 VH
VL: B1 VL with V89L
notes: Second round of humanization
B13: humanized IgG #118-2-5 Hu(A4)/LuX (antibody, V domains shown)
VH: B1 VH with T86Q
VL: B1 VL
notes: Second round of humanization
B14: humanized IgG #118-2-5 HuA/Lu(X2) (antibody, V domains shown)
VH: B1 VH
VL: B1 VL with I21M
notes: Second round of humanization
B15: humanized IgG #118-2-5 HuA/Lu(X4) (antibody, V domains shown)
VH: B1 VH
VL: B1 VL with Y55S
notes: Second round of humanization
B16: humanized IgG #118-2-5 HuA/Lu(X1) (antibody, V domains shown)
VH: B1 VH
VL: B1 VL with D9S
notes: Second round of humanization
B17: humanized IgG #118-2-5 Hu(A2)/LuX (antibody, V domains shown)
VH: B1 VH with V71K
VL: B1 VL
notes: Second round of humanization
B18: humanized IgG #118-2-5 Hu(A3)/LuX (antibody, V domains shown)
VH: B1 VH with F78V
VL: B1 VL
notes: Second round of humanization
B19: #125-1-5 mouse H14-4/L3-4 (antibody, V domains shown)
VH: QIQLVQSGPELVKPGASVKMSCKASGYTFTTYVIHWVKQKPGQGLEWIGYINPNNDGTKYNEKFKGKATLISDKSSTTAYMEVRGLTSEDSAVYYCARPHFETHAMDYWGQGTSVTVSS
VL: DIQMTQSPSSFSVSLGDSVTITCKASEDIFNRLAWYQQKPGNAPRLLISGATSLETGVPSRFSGGGSGKEYTLSITSLQNEDVATYYCQQYWNTWTFGGGTKLEIK

As usually defined, the EC50 is the concentration giving half of the maximal effect. Higher therefore signals a need for much substance.

Substitutions are numbered along the chain they refer to.

The target in one assay is T1, human Trop-2 on Trop-2 positive cancer …. In words: cell-based or functional assay.
On to B1, for which the “Internalization rate (flow cytometry, MDA-MB-468 cells)” value (“Internalization rate” below) was determined as 70.9%.
On the same count and under the same terms, under B2 stands 13.2%; under B3, 0.9%; under B4, -14.7%.
The same measure, in the same setting: under B5 stands 75%.
As for B6, the “Internalization rate” value is -7.8%.
Take B7: the “Internalization rate” value was -8.5%.
For B8, the “Internalization rate” value is 3%.
Regarding B9, the “Internalization rate” value was 28.4%.

The next assay concerns the target T2, human Trop-2-ECD-6His fusion protein. The assay can be described thus: antigen binding ELISA on immobilized human Trop-2-ECD-6His.
B1 returned a 50% effective concentration (EC50) of 0.39 nM. That is a sub-nanomolar value.
Regarding B2, the EC50 stood at 0.06 nM. This EC50 is about 6.5-fold lower than that of the molecule before.
As to B10, the EC50 was determined as 0.34 nM. Against the preceding molecule, the EC50 is about 5.7-fold higher.
B11 came in with an EC50 of 0.31 nM.
Still for that read-out and setting: as for B12, the figure is 0.26 nM; as for B13, 0.39 nM; as for B14, 0.36 nM.
On the same count and under the same terms, under B15 stands 0.12 nM.
On to B16, for which the concentration giving a half-maximal response (EC50) was determined as 0.26 nM.
Still for that read-out and setting: under B17 stands 0.37 nM; under B18, 0.31 nM.

For another assay, the target named is T1, human Trop-2 on Trop-2 positive cancer …. In words: cell-based or functional assay. This is another data set of the same source.
Take B19: the “Internalization rate” value was found to be 5.5%.

A further assay addresses T2, human Trop-2-ECD-6His fusion protein. In words: antigen binding ELISA on immobilized human Trop-2-ECD-6His. This is another data set of the same source. For orientation: In an ELISA, binding on a coated surface is turned into a signal by an enzyme label.
With B1, the EC50 was 0.142 nM.
Same read-out and setting: as for B2, the figure is 0.005 nM; as for B3, 0.034 nM; as for B4, 0.016 nM.
Same read-out and setting: under B5 stands 0.164 nM.
Same read-out and setting: as for B6, the figure is 0.011 nM.
Molecule B7 had an EC50 of 0.004 nM.
On to B8, for which the midpoint of the response, the EC50, lay at 0.014 nM.
On the same count and under the same terms, under B9 stands 0.024 nM.

A further assay concerns the target T3, mouse Trop-2-His. In words: ELISA on coated antigen, one antibody dilution (concentration not given), detected by GAH-HRP; y axis without a label (OD450 by the text).
With B1, the binding result is listed as “no binding”.
Regarding B2, the binding result is “no binding”.
Still for that read-out and setting: as for B3, the entry is “no binding”.
For the molecule B4, the binding result is recorded as “no binding”.
On the same count and under the same terms, under B5 stands “no binding”.
On the same count and under the same terms, under B6 stands “no binding”.
Regarding B7, the binding result is on record as “no binding”.
The same measure, in the same setting: under B8 stands “no binding”.
B9: the binding result is listed as “no binding”.

The next assay has as its target T4, human EPCAM-His. The description is as above.
Take B1: the binding result is on record as “no binding”.
For B2, the binding result is “no binding”.
As to B3, the binding result was “no binding”.
Still for that read-out and setting: under B4 stands “no binding”; under B5, “no binding”; under B6, “no binding”.
On the same count and under the same terms, under B7 stands “no binding”; under B8, “no binding”.
On the same count and under the same terms, under B9 stands “no binding”.

The target of another assay is T1, human Trop-2 on Trop-2 positive cancer …. The assay can be described thus: cell-based or functional assay. The source holds these as a separate data set.
Take B1: the “Internalization rate” value was found to be 96.8%.
In the case of B2, the “Internalization rate” value was found to be 57.3%.
In the case of B10, the “Internalization rate” value amounted to 11.5%.
On the same count and under the same terms, under B11 stands 19.7%; under B12, 46.4%; under B13, 52.8%.
For B14, the “Internalization rate” value came to 43.2%.
On the same count and under the same terms, under B15 stands 61.5%; under B16, 48.9%.
As to B17, the “Internalization rate” value turned out to be 14.6%.
B18: the “Internalization rate” value worked out at 55.8%.
